Laboratory results taken from patent US20040018571A1.

Target: T1, recombinant secreted soluble PSCA with a C-terminal 6xHis and MYC tag (human) (UniProt O43653)
T1 sequence (looked up): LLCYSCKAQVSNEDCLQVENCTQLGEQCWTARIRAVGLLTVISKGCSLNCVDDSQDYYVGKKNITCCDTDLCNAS
Test: SPR (BIAcore), recombinant His/MYC-tagged PSCA immobilized at low density (30 RU), mAb in solution

B1: anti-PSCA monoclonal antibody 1G8 (ATCC No. HB-12612) (antibody, from another filing, mouse IgG1, V domains shown)
VH: EVQLQQSGAELVRSGASVKLSCTASGFNIKDYYIHWVNQRPDQGLEWIGWIDPENGDTEFVPKFQGKATMTADIFSNTAYLHLSSLTSEDTAVYYCKTGGFWGQGTLVTVSA
VL: QVVLTQSPAIMSASPGEKVTMACSASSSVRFIHWYQQKSGTSPKRWIYDTSKLASGVPTRFSGSGSGTSYSLTISTMEAEDAATYYCQQWSSSPFTFGSGTKLIIK
What does the source list for B1?
Kd: 1 nM; kon: 168000 M⁻¹ s⁻¹
